Experimental findings from article PMC8092395, “Development of Stable Chimeric IL-15 for Trans-Presentation by the Antigen Presenting Cells” (Frontiers in Immunology, 2021) are described below.

The stoichiometry N is a count of units in the complex or per binding partner.

Data set [1] has as its target human chimeric IL-15 (huIL-15 + huIgHG2 chimera; IL-2SP-N72DIL-15CDS-K322AIgHg2) (human). The data set is described as follows: SEC; analytical size-exclusion HPLC, Zorbax Bio Series GF-250 column, PBS mobile phase, 1 ml/min; 20 µl of 1 μg/ml chimeric IL-15; OVA and BSA as standards. In general terms: Size exclusion chromatography separates by hydrodynamic size, large species first.

For data set [2] the target is unchanged. As to the kind of experiment: non-reducing SDS-PAGE; purified chimeric IL-15 loaded on SDS-PAGE under non-reducing or reducing conditions, Coomassie stain, densitometry of dimer vs. monomer.
Data set [3] concerns the molecule itself. The description is as above.

In the case of “human chimeric IL-15 (huIL-15 + huIgHG2 chimera; IL-2SP-N72DIL-15CDS-K322AIgHg2) (Fc fusion)”, the stoichiometry N in data set [1] and in data set [2] was 2 throughout.

B1: mouse chimeric IL-15 (mIL-15 + mIgHG2a chimera) (Fc fusion)
chain: GIHVFILGCVSVGLPKTEANWIDVRYDLEKIESLIQSIHIDTTLYTDSDFHPSCKVTAMNCFLLELQVILHEYSNMTLNETVRNVLYLANSTLSSNKNVAESGCKECEELEEKTFTEFLQSFIRIVQMFINTSGSAKTTAPSVYPLAPVCGDTTGSSVTLGCLVKGYFPEPVTLTWNSGSLSSGVHTFPAVLQSDLYTLSSSVTVTSSTWPSQSITCNVAHPASSTKVDKKIEPRGPTIKPCPPCKCPAPNLLGGPSVFIFPPKIKDVLMISLSPIVTCVVVDVSEDDPDVQISWFVNNVEVHTAQTQTHREDYNSTLRVVSALPIQHQDWMSGKEFKCKVNNKDLPAPIERTISKPKGSVRAPQVYVLPPPEEEMTKKQVTLTCMVTDFMPEDIYVEWTNNGKTELNYKNTEPVLDSDGSYFMYSKLRVEKKNWVERNSYSCSVVHEGLHNHHTTKSFSRTPGK
For the molecule B1, in data set [3], the “stoichiometry N” value was found to be 2.
